Experimental findings from patent publication US20230303715A1 are described below.

Assay [1] addresses biotinylated human FcRn (produced by Protocol 1) (human) (UniProt P55899). Briefly: SPR Biacore T200, FcRn on neutravidin, pH 6. (In general: In SPR one partner is held on a chip, and binding of the other changes the refractive index at the surface.)
Assay [2] deals with FcγRIII (UniProt P08637). Briefly: SPR ProteOn, Ab on HER2 chip, equilibrium fit.
Assay [3] has as its target FcγRIIaH (UniProt P12318). Briefly: SPR ProteOn, Ab on HER2 chip, equilibrium fit.
The next assay has as its target FcγRIIaR (UniProt P12318). Kind of assay: SPR ProteOn, Ab on HER2 chip, equilibrium fit.
Assay [4] has as its target FcγRIIb (UniProt P31994). Briefly: SPR ProteOn, Ab on HER2 chip, equilibrium fit.
Assay [5] has as its target FcγRIIb (UniProt P31994). Kind of assay: SPR Biacore, Ab on HER2 chip.
For assay [6], the target named is FcγRIIa (UniProt P12318). Kind of assay: SPR; KD wt/KD mut vs 16588.
Assay [7] has as its target FcγRIIb (UniProt P31994). Kind of assay: SPR; KD wt/KD mut vs 16588.
The target of assay [8] is FcγRIIa (UniProt P12318). Briefly: SPR Biacore, Ab on HER2 chip.
Assay [9] has as its target biotinylated human FcRn (produced by Protocol 1) (human) (UniProt P55899). Briefly: SPR; KD wt/KD mut vs parental variant.
Another assay concerns the target FcγRI (UniProt P12314). Briefly: SPR ProteOn, Ab on HER2 chip, equilibrium fit.
Assay [10] has as its target soluble human FcRn (human) (UniProt P55899). Kind of assay: SPR ProteOn, Ab on protein L, pH 6.0.
Assay [11] has as its target FcγRIIa (UniProt P12318). Briefly: SPR Biacore, Ab on HER2 chip; KD called ambiguous.
The target in assay [12] is FcγRIIb (UniProt P31994). Briefly: SPR Biacore, Ab on HER2 chip; KD called ambiguous.
In assay [13] the target is FcγRIII (UniProt P08637). Briefly: SPR; KD wt/KD mut vs parental variant.
Assay [14] addresses FcγRIIaH (UniProt P12318). Briefly: SPR; KD wt/KD mut vs parental variant.

One may read the Kd as the concentration at which binding is half-saturated. A low value points to higher affinity.

Sequence of FcγRIIb (P31994 43-217 limits assumed): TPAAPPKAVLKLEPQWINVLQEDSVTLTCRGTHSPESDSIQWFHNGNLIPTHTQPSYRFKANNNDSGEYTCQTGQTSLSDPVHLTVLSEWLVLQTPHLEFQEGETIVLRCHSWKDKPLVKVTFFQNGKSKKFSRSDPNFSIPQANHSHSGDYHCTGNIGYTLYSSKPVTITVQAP
Sequence of FcγRIII (P08637 17-208 limits assumed): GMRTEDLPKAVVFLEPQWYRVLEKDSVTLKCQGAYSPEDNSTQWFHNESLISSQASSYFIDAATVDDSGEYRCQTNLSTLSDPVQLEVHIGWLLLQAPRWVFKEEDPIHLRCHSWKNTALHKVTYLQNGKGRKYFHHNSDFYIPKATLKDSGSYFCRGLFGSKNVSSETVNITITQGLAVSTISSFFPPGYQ
Sequence of FcγRI (P12314 16-292 limits assumed): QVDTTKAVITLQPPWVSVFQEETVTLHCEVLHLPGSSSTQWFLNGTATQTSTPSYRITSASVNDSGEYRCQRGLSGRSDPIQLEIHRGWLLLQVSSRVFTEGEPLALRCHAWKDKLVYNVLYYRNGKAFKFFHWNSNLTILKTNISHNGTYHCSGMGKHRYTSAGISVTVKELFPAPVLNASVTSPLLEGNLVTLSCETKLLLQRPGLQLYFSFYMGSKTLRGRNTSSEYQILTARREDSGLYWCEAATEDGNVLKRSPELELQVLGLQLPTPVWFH
Sequence of soluble human FcRn (human) (P55899 24-297 limits assumed, chain 1 of 2): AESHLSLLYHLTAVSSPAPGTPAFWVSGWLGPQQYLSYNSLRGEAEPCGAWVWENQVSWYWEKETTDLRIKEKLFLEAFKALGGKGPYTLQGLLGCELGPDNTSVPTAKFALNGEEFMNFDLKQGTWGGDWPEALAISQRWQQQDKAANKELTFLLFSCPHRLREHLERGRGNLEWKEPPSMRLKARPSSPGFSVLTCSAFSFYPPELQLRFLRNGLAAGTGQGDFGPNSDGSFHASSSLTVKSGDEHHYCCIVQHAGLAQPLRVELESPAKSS
Sequence of soluble human FcRn (human) (P61769 21-119 limits assumed, chain 2 of 2, further chain): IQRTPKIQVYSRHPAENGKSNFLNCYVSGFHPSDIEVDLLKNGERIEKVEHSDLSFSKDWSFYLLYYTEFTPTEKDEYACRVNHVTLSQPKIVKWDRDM
Sequence of biotinylated human FcRn (produced by Protocol 1) (human) (P55899 24-297 limits assumed, chain 1 of 2): as the sequence (P55899 24-297 limits assumed, chain 1 of 2) above
Sequence of biotinylated human FcRn (produced by Protocol 1) (human) (P61769 21-119 limits assumed, chain 2 of 2, further chain): as the sequence (P61769 21-119 limits assumed, chain 2 of 2, further chain) above
Sequence of FcγRIIaH (P12318 34-217 limits assumed): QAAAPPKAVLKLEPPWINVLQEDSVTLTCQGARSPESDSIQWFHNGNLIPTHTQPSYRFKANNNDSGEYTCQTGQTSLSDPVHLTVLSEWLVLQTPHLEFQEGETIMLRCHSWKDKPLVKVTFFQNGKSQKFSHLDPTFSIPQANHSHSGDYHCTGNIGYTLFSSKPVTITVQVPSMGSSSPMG
Sequence of FcγRIIaR (P12318 34-217 H167R limits assumed): as the sequence (P12318 34-217 limits assumed) above, with H134R counted along it

Turning to “trastuzumab full-size antibody with S239D and I332E (Scaffold 7), variant v31517”, the Kd in [1] came out at 337 nM; with FcγRIII [2], 32 nM; with FcγRIIaH [3] it was 775 nM; with FcγRIIaR it was 775 nM; in the assay with FcγRIIb [4], 1250 nM.
In the assay with FcγRIIb [5], “trastuzumab Scaffold 1 variant 19309 (L242I) (antibody)” registered a Kd of 5070 nM.
Substance “trastuzumab Scaffold 1 variant 19316 (M252S) (antibody)” yielded a Relative FcγRIIa Binding with FcγRIIa [6] of 0.94. In addition, the Relative FcγRIIb Binding with FcγRIIb [7] is 1.01. In addition, the Kd with FcγRIIa [8] worked out at 1160 nM; in the assay with FcγRIIb [5], 3750 nM.
As to “trastuzumab Scaffold 6 (N297A) variant v31515 (A287F_T250V) (antibody)”, the Fold in [9] stood at 0.8. Also, the values for the dissociation constant Kd (in [1]; with FcγRI) were 553 nM and 18.7 nM, respectively.
As to “trastuzumab Scaffold 1 variant 19318 (L314M) (antibody)”, the Relative FcγRIIa Binding with FcγRIIa [6] is 0.55. This substance also yielded a Relative FcγRIIb Binding in the assay with FcγRIIb [7] of 0.66. Besides, the Kd in the assay with FcγRIIa [8] worked out at 2020 nM; in the assay with FcγRIIb [5], 5760 nM.
Consider “trastuzumab Scaffold 1 variant 19313 (V308I) (antibody)”, for which the Relative FcγRIIa Binding with FcγRIIa [6] came to 0.89. In the assay with FcγRIIb [7], this substance gave a Relative FcγRIIb Binding of 0.94. Besides, the figures for the Kd with FcγRIIa [8] and in the assay with FcγRIIb [5] were 1240 nM and 4030 nM, respectively.
Turning to “trastuzumab Scaffold 1 variant 19321 (A287C_L306C) (antibody)”, the Relative FcγRIIa Binding with FcγRIIa [6] was 0.98. The substance also displayed a Relative FcγRIIb Binding with FcγRIIb [7] of 1.03. Further, the Kd with FcγRIIa [8] amounted to 1130 nM; in the assay with FcγRIIb [5] it was 3670 nM; in assay [10] it was 693 nM.
With “trastuzumab Scaffold 1 variant 19310 (T250V) (antibody)”, the Relative FcγRIIa Binding in the assay with FcγRIIa [6] came to 1.22. The Relative FcγRIIb Binding in the assay with FcγRIIb [7] was determined as 1.24. The values for the Kd (in the assay with FcγRIIa [8]; in the assay with FcγRIIb [5]; in [10]) were 899 nM, 3050 nM and 821 nM, respectively.
For “trastuzumab Scaffold 1 variant 19326 (V263C_V302C) (antibody)”, the Relative FcγRIIa Binding with FcγRIIa [6] amounted to 1.14. This substance registered a Relative FcγRIIb Binding with FcγRIIb [7] of 1.35. Besides, the Kd in assay [10] was found to be 604 nM; with FcγRIIa [11], 963 nM; with FcγRIIb [12] it was 2820 nM.
“trastuzumab Scaffold 7 (S239D/I332E) variant v31518 (A287F_M428F) (antibody)”: the Fold was 1 in the assay with FcγRIII [13], 1.2 with FcγRIIaH [14] and 1.2 in assay [9]. Besides, the Kd in assay [1] stood at 275 nM; with FcγRI, 0.0136 nM; in the assay with FcγRIII [2], 30.9 nM; with FcγRIIaH [3] it was 671 nM; with FcγRIIaR it was 691 nM; in the assay with FcγRIIb [4], 1150 nM.
In the case of “trastuzumab Scaffold 1 variant 19306 (A339Q) (antibody)”, the figures for the Kd with FcγRIIa [8] and with FcγRIIb [5] were 1040 nM and 3810 nM, respectively.
Take “trastuzumab Scaffold 1 variant 19314 (Y319F) (antibody)”: the Kd with FcγRIIb [5] was 3490 nM.
“trastuzumab Scaffold 1 variant 19311 (F275I) (antibody)” returned a Relative FcγRIIa Binding with FcγRIIa [6] of 1.48. The Relative FcγRIIb Binding with FcγRIIb [7] is 1.71. Besides, the Kd was determined as 745 nM with FcγRIIa [8] and 2220 nM with FcγRIIb [5].
Consider “trastuzumab variant v17078 (WT) (antibody)”, for which the Kd came to 292 nM in assay [1]; 0.0894 nM in the assay with FcγRI; 1480 nM with FcγRIII [2]; 2070 nM with FcγRIIaR; 6850 nM with FcγRIIb [4].
Substance “trastuzumab Scaffold 1 variant 19304 (T289W) (antibody)” showed a Kd in the assay with FcγRIIb [5] of 3460 nM. This counts as single-digit micromolar.
The substance “trastuzumab Scaffold 1 variant 19329 (F243C_T260C) (antibody)” displayed a Relative FcγRIIa Binding in the assay with FcγRIIa [6] of 0.38. The Relative FcγRIIb Binding in the assay with FcγRIIb [7] stood at 0.39. The Kd with FcγRIIa [8] stood at 2930 nM; with FcγRIIb [5], 9830 nM.
In turn, “trastuzumab Scaffold 1 variant 19331 (V240C_I332C) (antibody)” registered a Relative FcγRIIa Binding in the assay with FcγRIIa [6] of 0.02. The same substance had a Relative FcγRIIb Binding in the assay with FcγRIIb [7] of 0.23. In addition, the results for the Kd with FcγRIIa [8] and with FcγRIIb [5] were 63700 nM and 16900 nM, respectively.
On to “trastuzumab Scaffold 7 (S239D/I332E) variant v31519 (A287F_T250V) (antibody)”, for which the Kd in assay [1] worked out at 470 nM; in the assay with FcγRI, 0.0108 nM; with FcγRIII [2] it was 29 nM; in the assay with FcγRIIaH [3], 655 nM; with FcγRIIaR it was 685 nM.
Regarding “trastuzumab full-size antibody with homodimeric IgG1 Fc (Scaffold 1), variant 16588 (WT)”, the values for the Kd (in the assay with FcγRIIb [5]; in assay [10]) were 3800 nM and 641 nM, respectively.
On to “trastuzumab Scaffold 1 variant 19325 (F275C_S304C) (antibody)”, for which, in the assay with FcγRIIb [5], the Kd worked out at 4910 nM. In other words, the single-digit micromolar range.
“trastuzumab Scaffold 1 variant 19308 (M428F) (antibody)” showed a Relative FcγRIIa Binding in the assay with FcγRIIa [6] of 1.06. The substance also displayed a Relative FcγRIIb Binding in the assay with FcγRIIb [7] of 1.08. Also, the values for the Kd (in the assay with FcγRIIa [8]; in the assay with FcγRIIb [5]; in assay [10]) were 1030 nM, 3510 nM and 464 nM, respectively.
In turn, “trastuzumab Scaffold 1 variant 19328 (T289C_S304C) (antibody)” had a Relative FcγRIIa Binding in the assay with FcγRIIa [6] of 1.6. The same substance yielded a Relative FcγRIIb Binding with FcγRIIb [7] of 1.85. Besides, the Kd with FcγRIIa [8] was 689 nM; with FcγRIIb [5], 2050 nM.
In turn, “trastuzumab Scaffold 1 variant 19307 (A378W) (antibody)” yielded a Relative FcγRIIa Binding with FcγRIIa [6] of 0.76. For the same substance, the Relative FcγRIIb Binding with FcγRIIb [7] turned out to be 0.7. The Kd with FcγRIIa [8] was 1450 nM; in the assay with FcγRIIb [5], 5460 nM.
“trastuzumab Scaffold 1 variant 19322 (V259C_L306C) (antibody)”: the Relative FcγRIIa Binding in the assay with FcγRIIa [6] is 1.45. Further, the Relative FcγRIIb Binding with FcγRIIb [7] is 1.02. The results for the Kd with FcγRIIa [8] and with FcγRIIb [5] were 758 nM and 3720 nM, respectively.
In the assay with FcγRIIa [6], “trastuzumab Scaffold 1 variant 19320 (L242C_K334C) (antibody)” yielded a Relative FcγRIIa Binding of 0.71. The same substance gave a Relative FcγRIIb Binding in the assay with FcγRIIb [7] of 0.99. Also, the figures for the Kd (with FcγRIIa [8]; with FcγRIIb [5]; in assay [10]) were 1540 nM, 3820 nM and 645 nM, respectively.
On to “trastuzumab Scaffold 6 (N297A) variant v31516 (M428F_T250V) (antibody)”, for which the Kd came to 360 nM in assay [1] and 20 nM with FcγRI.
“trastuzumab Scaffold 1 variant 19305 (A339W) (antibody)” came in with a Relative FcγRIIa Binding in the assay with FcγRIIa [6] of 1.72. The substance further displayed a Relative FcγRIIb Binding with FcγRIIb [7] of 1.81. The Kd was determined as 640 nM in the assay with FcγRIIa [8] and 2100 nM in the assay with FcγRIIb [5].
Substance “trastuzumab Scaffold 1 variant 19319 (K334R) (antibody)” came in with a Relative FcγRIIa Binding with FcγRIIa [6] of 1.17. In addition, the Relative FcγRIIb Binding with FcγRIIb [7] turned out to be 1.29. The Kd with FcγRIIa [8] is 941 nM; with FcγRIIb [5] it was 2950 nM.
“trastuzumab Scaffold 1 variant 19312 (V279I) (antibody)” displayed a Relative FcγRIIa Binding with FcγRIIa [6] of 0.94. Moreover, in the assay with FcγRIIb [7], the Relative FcγRIIb Binding was determined as 1.02. Further, the Kd came out at 1170 nM in the assay with FcγRIIa [8] and 3720 nM with FcγRIIb [5].
For the substance “trastuzumab Scaffold 6 (N297A) variant v31514 (A287F_M428F) (antibody)”, in [9], the Fold worked out at 1.3. Besides, the values for the Kd (in [1]; in the assay with FcγRI) were 369 nM and 16.2 nM, respectively.
Regarding “trastuzumab full-size antibody with N297A (Scaffold 6), variant v31513”, the Kd in [1] turned out to be 467 nM; with FcγRI, 25.7 nM.
For the substance “trastuzumab Scaffold 1 variant 19327 (L242C_I336C) (antibody)”, in the assay with FcγRIIa [6], the Relative FcγRIIa Binding is 0.97. In addition, the Relative FcγRIIb Binding with FcγRIIb [7] worked out at 1.18. Further, the Kd is 1140 nM in the assay with FcγRIIa [8] and 3220 nM in the assay with FcγRIIb [5].
For the substance “trastuzumab Scaffold 1 variant 19324 (D249C_P257C) (antibody)”, the Kd with FcγRIIb [5] was determined as 14000 nM.
With “trastuzumab Scaffold 1 variant 19323 (R292C_V302C) (antibody)”, the Relative FcγRIIa Binding in the assay with FcγRIIa [6] turned out to be 0.3. This substance also displayed a Relative FcγRIIb Binding in the assay with FcγRIIb [7] of 0.22. In addition, the Kd with FcγRIIa [8] was 3660 nM; in the assay with FcγRIIb [5], 17600 nM.
Regarding “trastuzumab Scaffold 1 variant 19303 (A287F) (antibody)”, the figures for the Kd (in the assay with FcγRIIa [8]; in assay [10]) were 1070 nM and 690 nM, respectively.
As for “trastuzumab Scaffold 1 variant 19317 (L309Q) (antibody)”, the Relative FcγRIIa Binding in the assay with FcγRIIa [6] was 0.96. Also, the Relative FcγRIIb Binding in the assay with FcγRIIb [7] stood at 1.03. Further, the values for the Kd (with FcγRIIa [8]; with FcγRIIb [5]; in assay [10]) were 1150 nM, 3680 nM and 1000 nM, respectively.
